Test [1] deals with rat NPY Y5 receptor, clone Y555 (rat). The test is described as follows: competition with [125I]PYY, membranes of transfected COS-7 cells; second individual value in brackets.
For test [2] the target is unchanged. The test is described as follows: competition with [125I]PYY, membranes of transfected COS-7 cells; first individual value in brackets.
Test [3] shares this target. The test is described as follows: competition with [125I]PYY, membranes of transfected COS-7 cells; average of two experiments.
Test [4] deals with Rat Y2 (clone) (rat). The test is described as follows: competition with [125I]PYY on the rat Y2 clone.
In test [5] the target is Rat Y1 (clone) (rat) (UniProt P21555). Description: competition with [125I]PYY on the rat Y1 clone.
Test [6] addresses rat NPY Y5 receptor, clone Y861 (rat). Description: competition with [125I]PYY, membranes of transfected COS-7 cells.
Test [7] addresses rat NPY Y5 receptor, clone Y217.24.13.6B (rat). Description: competition with [125I]PYY, membranes of transfected COS-7 cells; second individual value in brackets.
Test [8] has the same target. The test is described as follows: competition with [125I]PYY, membranes of transfected COS-7 cells; first individual value in brackets.
In test [9] the target is Rat Y4/PP1 (clone) (rat) (UniProt Q63447). The test is described as follows: competition with rat [125I]PP on the rat Y4/PP1 clone.
Chain of Rat Y4/PP1 (clone) (rat) (Q63447 whole entry): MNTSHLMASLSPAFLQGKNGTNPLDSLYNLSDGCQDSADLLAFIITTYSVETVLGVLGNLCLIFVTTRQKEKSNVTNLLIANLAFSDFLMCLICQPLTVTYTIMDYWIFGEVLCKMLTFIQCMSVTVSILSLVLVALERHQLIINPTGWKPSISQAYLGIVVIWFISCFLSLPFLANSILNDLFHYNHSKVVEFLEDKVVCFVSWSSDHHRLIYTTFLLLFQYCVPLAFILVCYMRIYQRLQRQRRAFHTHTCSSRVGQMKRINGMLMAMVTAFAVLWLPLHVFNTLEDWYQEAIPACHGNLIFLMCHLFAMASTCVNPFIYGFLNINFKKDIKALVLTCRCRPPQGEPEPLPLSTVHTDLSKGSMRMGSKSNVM

Turning to “r/h(LP)NPY (from UniProt P01303) (peptide)”, the 50% inhibitory concentration (IC50) in test [1] is 0.92 nM; in [2] it was 1 nM; in test [3], 0.96 nM.

Take r/hNPY (from UniProt P01303) (peptide): the half-maximal inhibitory concentration (IC50) in [4] amounted to 0.24 nM.

Substance “r/h(2-36)NPY (from UniProt P01303) (peptide)” returned a half-inhibitory concentration (IC50) in [4] of 0.5 nM.

For the substance (1-24)NPY (peptide), the concentration for half-maximal inhibition (IC50) in test [4], in test [5] and in test [6] was over 1000 nM in each case.

In [4], “r/h(10-36)NPY (from UniProt P01303) (peptide)” gave a half-maximal inhibitory concentration (IC50) of 0.42 nM.

As to “p(13-36)NPY (from UniProt P01304) (peptide)”, the IC50 in test [4] worked out at 1.3 nM.

Substance rPP (from UniProt P06303) (peptide) showed an IC50 in [4] of over 1000 nM.

Take “h(Leu^31 Pro^34)PYY (from UniProt P10082) (peptide)”: the values for the IC50 in test [7], in test [8] and in test [6] were 0.69 nM, 0.65 nM and 2 nM, respectively.

Consider “p(Leu^31 Pro^34)NPY (from UniProt P01304) (peptide)”, for which the half-inhibitory concentration (IC50) in [4] came out at 150 nM; in test [5] it was 0.15 nM.

Regarding “r/h(Leu^31 Pro^34)(3-36)NPY (from UniProt P01303) (peptide)”, the results for the IC50 in test [4] and in test [5] were 154 nM and 44 nM, respectively.

Consider “r/hNPY, P01303 (peptide; other documents disagree on this pair)”, for which, in test [9], the half-maximal inhibitory concentration (IC50) was over 1000 nM.

In the case of rPYY (from UniProt P10631) (peptide), the IC50 in test [4] is 0.079 nM. This counts as picomolar.

For “r/h(32D-Trp)NPY (from UniProt P01303) (peptide)”, the IC50 in test [5] was over 1000 nM; in test [6] it was 7 nM.

The values above are taken from patent US5919901.
